Patent US20120039803A1, “PRETARGETING KIT, METHOD AND AGENTS USED THEREIN” (KONINKLIJKE PHILIPS ELECTRONICS N.V., priority 2009, published 2012)

Tested on: human colon cancer cell line LS174T
Settings: mouse, in vivo

**Q.** Which results are given for “Rtx-TCO: TCO-modified rituximab for control in vivo experiments; lacks specificity for TAG72”?
**A.** tumor-to-blood ratio (T/B): 0.6±0.0; tumor-to-muscle ratio (T/M): 4.9±0.8
